{
  "source": "patent US20050181059A1",
  "about": "“Nanoparticulate therapeutic biologically active agents” (Spherics, Inc., priority 2003, published 2005)",
  "key": {"[1]": {"settings": "in vivo", "protocol": "In a separate study, the bioavailability for non-encapsulated insulin was tested."}, "[2]": {"experiment": "SDS-PAGE stability following micronization", "assay_type": "physicochemical", "settings": "denaturing, non-reducing; resolubilized in 10 mM PBS"}, "[3]": {"experiment": "BCA analysis of protein concentration of redissolved hIL-12", "assay_type": "physicochemical", "settings": "BCA assay, resolubilized in 10 mM PBS", "description": "Recombinant Human Interleukin-12 (hIL-112) was obtained from Genetics Institute and tBA from EM Science. hIL-12 (500 microliters at 2.79 mg/ml) was injected into tBA (5 ml). A fine precipitate formed immediately. The dispersion was rapidly frozen in liquid nitrogen (15 minutes) and the solvent removed by lyophilization for 48 hours. The resulting powder was visualized by SEM. The stability following micronization was assayed by SDS-PAGE (Invitrogen) and BCA (Pierce) assay of hIL-12 resolubilized in 10 mM PBS according to manufacturer's instructions.\nSDS-PAGE (denaturing, non-reducing) analysis was used to compare tBA-treated hIL-12 particles with the control stock, with and without lyophilization. […] This was confirmed by […] acid (BCA) analysis of protein concentration of hIL-12 redissolved after lyophilization alone, or after micronization followed by lyophilization. The lyophilized-only protein was 99% soluble, while the micronized protein was 71% soluble. Thus a disagreggating agent should be included to prevent aggregation when micronizing hIL-12 using tBA."}},
  "data": [
    {"substance": "Non-encapsulated insulin: non-encapsulated insulin tested for bioavailability in a separate study", "values": [
      {"measurement": "bioavailability", "setting": "[1]", "value": "less than 1%"}
    ]},
    {"substance": "micronized hIL-12: Recombinant Human Interleukin-12 injected into tBA, frozen and lyophilized", "values": [
      {"measurement": "aggregation by SDS-PAGE", "setting": "[2]", "value": "irreversibly denatured and aggregated into dimers, trimers, and aggregates too large to enter the gel"},
      {"measurement": "soluble protein after redissolving", "setting": "[3]", "value": 71, "unit": "%"}
    ]},
    {"substance": "lyophilized-only hIL-12: hIL-12 control stock redissolved after lyophilization alone", "values": [
      {"measurement": "aggregation by SDS-PAGE", "setting": "[2]", "value": "did not produce irreversible aggregation"},
      {"measurement": "soluble protein after redissolving", "setting": "[3]", "value": 99, "unit": "%"}
    ]}
  ]
}
